The source of these data is patent US20060216231, “Methods for diagnosing and treating tumors and suppressing cd promoters” (published 2006).

In series [1] the target is T1, hnRNP-K (GST fusion) (Homo sapiens, UniProt P61978 SEQ:1-463). The series is described as follows: competition; 100-fold excess fails to compete n1 binding. Particulars: tags: N-terminal GST fusion, expressed in E. coli XL-2 (construct from D. Levens). As to the method:
(§1) Binding reactions containing GST/hnRNP-K were performed in the absence (GST-K) or presence (+) of a 100 fold molar excess of unlabeled CD43 PyRo SS, the presence of Mut-11 (Mut) representing a mutant version of CD43 PyRo SS which fails to support PyRol binding Farokhzad et al., (2000) Nucleic Acids Research, 28:2256-2267) or the presence of an unrelated oligonucleotide (NS). The free probe and probe bound by the GST/hnRNP-K protein (GST:hnRNP-K) are arrowed.

Series [2] deals with T1, hnRNP-K (GST fusion). The series is described as follows: EMSA; 70 mM KCl, 5 mM NaCl, 20 mM Tris pH 7.5, poly(dI-dC), 4 C; competed by 100-fold unlabeled self. Particulars: tags: N-terminal GST fusion, expressed in E. coli XL-2 (construct from D. Levens); label: 32P 5'. On the procedure:
as §1
Background: In EMSA bound probe runs differently from free probe, usually more slowly.

The target of series [3] is T1, hnRNP-K (GST fusion). The experiment in a line: competition; unrelated competitor oligonucleotide; outcome not explicitly described in text. The note with it: tags: N-terminal GST fusion, expressed in E. coli XL-2 (construct from D. Levens). On the procedure:
as §1

Take GGGCCCACTTCCTTCATATATG (ssDNA) [CD43 Mut-11]: the binding result with hnRNP-K (GST fusion) [1] was “no binding”. Regarding GGGCCCACTTCCTTTCCCCTTG (ssDNA) [CD43 PyRo SS], the binding result with hnRNP-K (GST fusion) [2] is reported as “binds”. For GAGTTAGCTCACTCATTAGG (ssDNA) [NS-SS], the binding result with hnRNP-K (GST fusion) [3] was “no binding”.
